Experimental data from paper PMC9399903 (Nature structural & molecular biology, 2022).

What was measured:
[1] = target: the molecule itself; assay: SEC
[2] = target: wild-type yeast core particle (CP, 20S proteasome) (S. cerevisiae (endogenous in yeast)) (UniProt P23639)
wild-type yeast core particle (CP, 20S proteasome) (S. cerevisiae (endogenous in yeast)), sequence (P23639 whole entry, looked up): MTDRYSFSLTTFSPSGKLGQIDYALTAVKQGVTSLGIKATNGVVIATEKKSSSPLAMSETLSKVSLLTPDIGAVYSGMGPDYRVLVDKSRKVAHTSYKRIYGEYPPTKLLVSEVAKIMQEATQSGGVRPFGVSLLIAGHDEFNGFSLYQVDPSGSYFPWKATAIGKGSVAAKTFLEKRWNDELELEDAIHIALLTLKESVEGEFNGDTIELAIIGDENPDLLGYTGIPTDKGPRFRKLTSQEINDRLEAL

B1: Fub1 (S. cerevisiae PI31), endogenous untagged (natural protein, UniProt P25659 1-250, looked up)
chain: MIENKVELVAELVLESIGKTEVVSRHTEGTKSCQVSFRIKDSPSEKGSTSFLSELVVIQTLDDNDKYTVVIRHGTSITMACVVGYSDFKLPTELKWPLERESLPVEPDLKPIMTQLKRQTAGSADMPKFDDEYQAQARQNQGTAPLNPYPGLTVTEPSFANPAGGYADGDLYPVGTSHPDWSGGLPNPLGNPSSQGGMIFDPNRRPAPRREDMPPGWMPGSKYDEPFGPGSGGFGGSGSGGFGGSGSGFI
Which “stoichiometry N” value [1] does the source give for B1 here?
The value was 2.

What about the inhibition of CP peptidase activity at 2-fold molar excess of Fub1 [2] of the same binder?
Its inhibition of CP peptidase activity at 2-fold molar excess of Fub1 is 50%.
